Laboratory results taken from publication PMC9482650, “Quantitative fragmentomics allow affinity mapping of interactomes” (Nature Communications, 2022).

Assays:
Test in all cases: holdup assay
Design in all cases: key: below the threshold = too weak to quantify, mostly under pKd 3.1 to 4
Details in all cases: plain residues with an end cap or a label only (N-terminal biotin on a linker: ado-ado)
[1] = biological target: T1, ARHGEF11, O15085
T1 sequence (O15085 42-136, limits assumed, looked up): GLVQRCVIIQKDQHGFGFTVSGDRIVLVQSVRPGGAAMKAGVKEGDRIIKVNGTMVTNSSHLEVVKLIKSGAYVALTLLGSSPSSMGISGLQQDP

[2] = biological target: T2, GRIP1_5, Q9Y3R0
T2 sequence (Q9Y3R0 568-668, limits assumed, looked up): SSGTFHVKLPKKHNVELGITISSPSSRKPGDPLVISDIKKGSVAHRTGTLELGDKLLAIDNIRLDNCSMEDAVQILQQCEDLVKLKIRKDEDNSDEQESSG

[3] = biological target: GRIP2_5, Q9C0E4
GRIP2_5, Q9C0E4, sequence (Q9C0E4 544-642): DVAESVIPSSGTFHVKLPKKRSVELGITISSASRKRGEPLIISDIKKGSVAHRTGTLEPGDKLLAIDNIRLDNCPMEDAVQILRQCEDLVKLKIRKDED

[4] = biological target: T3, LIN7B, Q9HAP6
T3 sequence (Q9HAP6 88-185, limits assumed, looked up): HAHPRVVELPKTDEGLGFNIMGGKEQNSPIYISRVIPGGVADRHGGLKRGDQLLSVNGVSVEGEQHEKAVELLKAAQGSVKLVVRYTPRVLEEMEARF

[5] = biological target: T4, MPP2, Q14168
T4 sequence (Q14168 180-250, limits assumed, looked up): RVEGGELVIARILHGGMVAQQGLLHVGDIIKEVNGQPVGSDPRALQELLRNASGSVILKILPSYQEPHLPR

[6] = biological target: T5, NHERF3_1, Q5T2W1
T5 sequence (Q5T2W1 4-100, limits assumed, looked up): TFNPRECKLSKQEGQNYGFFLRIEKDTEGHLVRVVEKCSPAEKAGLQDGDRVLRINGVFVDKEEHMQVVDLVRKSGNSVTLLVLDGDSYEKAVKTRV

[7] = biological target: T6, LNX2_2, Q8N448
T6 sequence (Q8N448 334-432, limits assumed, looked up): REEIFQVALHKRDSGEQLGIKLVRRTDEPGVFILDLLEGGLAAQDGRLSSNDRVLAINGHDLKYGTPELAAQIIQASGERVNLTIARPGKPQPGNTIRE

[8] = biological target: SNX27, Q96L92
[9] = biological target: NOS1, P29475
NOS1, P29475, sequence (P29475 9-101): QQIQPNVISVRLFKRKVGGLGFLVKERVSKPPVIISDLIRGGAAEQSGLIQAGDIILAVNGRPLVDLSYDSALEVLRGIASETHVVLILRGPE

[10] = biological target: TJP2_1, Q9UDY2
TJP2_1, Q9UDY2, sequence (Q9UDY2 24-128): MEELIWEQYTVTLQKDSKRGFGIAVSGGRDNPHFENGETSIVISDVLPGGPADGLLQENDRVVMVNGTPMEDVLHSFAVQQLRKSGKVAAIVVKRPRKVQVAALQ

[11] = biological target: T7, DVL3, Q92997
T7 sequence (Q92997 244-331, limits assumed, looked up): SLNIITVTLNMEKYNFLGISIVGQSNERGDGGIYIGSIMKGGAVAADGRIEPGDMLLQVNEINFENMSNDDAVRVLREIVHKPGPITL

[12] = biological target: MAGI2_2, Q86UL8
MAGI2_2, Q86UL8, sequence (Q86UL8 410-522): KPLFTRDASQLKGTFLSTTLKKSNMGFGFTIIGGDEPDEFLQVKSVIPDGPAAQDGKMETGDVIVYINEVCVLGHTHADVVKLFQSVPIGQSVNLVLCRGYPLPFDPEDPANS

[13] = biological target: FRMPD4, Q14CM0
FRMPD4, Q14CM0, sequence (Q14CM0 67-160): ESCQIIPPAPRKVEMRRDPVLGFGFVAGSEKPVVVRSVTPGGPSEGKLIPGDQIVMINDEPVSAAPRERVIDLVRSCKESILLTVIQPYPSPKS

[14] = biological target: PARD3_3, Q8TEW0
PARD3_3, Q8TEW0, sequence (Q8TEW0 582-685): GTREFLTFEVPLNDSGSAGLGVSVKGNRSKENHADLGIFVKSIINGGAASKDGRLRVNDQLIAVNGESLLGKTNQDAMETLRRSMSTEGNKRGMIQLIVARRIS

[15] = biological target: GIPC2, Q8TF65
GIPC2, Q8TF65, sequence (Q8TF65 112-203): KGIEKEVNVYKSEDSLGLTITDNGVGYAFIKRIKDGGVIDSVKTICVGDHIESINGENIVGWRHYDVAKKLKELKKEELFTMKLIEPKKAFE

[16] = biological target: LAP2, Q96RT1
LAP2, Q96RT1, sequence (Q96RT1 other isoform, or with tags, fused parts or gaps): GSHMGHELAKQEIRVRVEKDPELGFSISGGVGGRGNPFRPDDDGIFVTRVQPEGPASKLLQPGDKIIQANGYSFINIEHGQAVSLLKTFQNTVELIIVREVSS

[17] = biological target: T8, LNX2_3, Q8N448
T8 sequence (Q8N448 463-564, limits assumed, looked up): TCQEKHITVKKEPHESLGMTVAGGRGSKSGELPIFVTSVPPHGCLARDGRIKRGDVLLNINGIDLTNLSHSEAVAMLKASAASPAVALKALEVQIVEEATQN

[18] = biological target: IL16_4, Q14005
IL16_4, Q14005, sequence (Q14005 1229-1329): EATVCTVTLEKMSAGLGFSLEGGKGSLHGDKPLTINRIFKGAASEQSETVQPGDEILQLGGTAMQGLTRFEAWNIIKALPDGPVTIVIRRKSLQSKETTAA

[19] = biological target: Inadl_2, Q8NI35
Inadl_2, Q8NI35, sequence (Q8NI35 238-335): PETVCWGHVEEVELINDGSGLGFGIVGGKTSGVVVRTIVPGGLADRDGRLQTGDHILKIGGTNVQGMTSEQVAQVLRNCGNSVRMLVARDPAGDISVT

[20] = biological target: T9, RADIL, Q96JH8
T9 sequence (Q96JH8 971-1071, limits assumed, looked up): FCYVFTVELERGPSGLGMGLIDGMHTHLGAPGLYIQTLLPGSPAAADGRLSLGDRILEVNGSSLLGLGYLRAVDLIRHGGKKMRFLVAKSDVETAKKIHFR

[21] = biological target: IL16_3, Q14005
IL16_3, Q14005, sequence (Q14005 1107-1207): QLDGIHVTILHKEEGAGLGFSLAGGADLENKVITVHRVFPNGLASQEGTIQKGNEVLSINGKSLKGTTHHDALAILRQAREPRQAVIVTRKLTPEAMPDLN

[22] = biological target: T10, TIAM2, Q8IVF5
T10 sequence (Q8IVF5 885-986, limits assumed, looked up): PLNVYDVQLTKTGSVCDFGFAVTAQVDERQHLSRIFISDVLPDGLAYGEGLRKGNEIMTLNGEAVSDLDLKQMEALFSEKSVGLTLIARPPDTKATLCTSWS

[23] = biological target: DLG1_2, Q12959
DLG1_2, Q12959, sequence (Q12959 314-412): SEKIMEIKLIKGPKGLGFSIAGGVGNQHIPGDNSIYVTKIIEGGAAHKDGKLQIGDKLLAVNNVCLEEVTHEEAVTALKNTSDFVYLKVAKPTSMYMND

[24] = biological target: T11, DLG3_3, Q92796
T11 sequence (Q92796 374-475, limits assumed, looked up): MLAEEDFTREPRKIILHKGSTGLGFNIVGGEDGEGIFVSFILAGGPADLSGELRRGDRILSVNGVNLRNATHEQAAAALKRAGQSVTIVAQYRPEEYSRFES

[25] = biological target: T12, GRIP1_4, Q9Y3R0
T12 sequence (Q9Y3R0 467-571, limits assumed, looked up): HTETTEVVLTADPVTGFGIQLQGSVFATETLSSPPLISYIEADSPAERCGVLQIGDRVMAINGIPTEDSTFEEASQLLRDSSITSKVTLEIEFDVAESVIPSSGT

[26] = biological target: MAST2, Q6P0Q8
MAST2, Q6P0Q8, sequence (Q6P0Q8 1099-1202): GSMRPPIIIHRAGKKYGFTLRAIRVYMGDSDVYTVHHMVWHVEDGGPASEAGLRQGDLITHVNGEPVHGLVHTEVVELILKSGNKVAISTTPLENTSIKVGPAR

With LVEEEEPMNL [HDAC7, Q8WUI4] the pKd [1] was “below the threshold”, the pKd [2] was “below the threshold” and the pKd [3] was “below the threshold”. The pKd [4] was “below the threshold”, the pKd [5] was “below the threshold” and the pKd [6] was “below the threshold”. For the same binder, the pKd [7] was “below the threshold”, the pKd [8] was “below the threshold” and the pKd [9] was “below the threshold”. For the same binder, the pKd [10] was “below the threshold”, the pKd [11] was “below the threshold” and the pKd [12] was “below the threshold”. The pKd [13] was 3.86, the pKd [14] was 4.23 and the pKd [15] was “below the threshold”. The pKd [16] was “below the threshold”, the pKd [17] was “below the threshold” and the pKd [18] was “below the threshold”. The pKd [19] was “below the threshold”, the pKd [20] was “below the threshold” and the pKd [21] was “below the threshold”. For the same binder, the pKd [22] was “below the threshold”, the pKd [23] was “below the threshold” and the pKd [24] was “below the threshold”. For the same binder, the pKd [25] was “below the threshold” and the pKd [26] was 4.08.

TKDKVQETQI [LRRC4, Q9HBW1] was tested, and the pKd [1] was 3.73, the pKd [2] was “below the threshold” and the pKd [3] was “below the threshold”. For the same binder, the pKd [4] was 3.74, the pKd [5] was “below the threshold” and the pKd [6] was 5.21. For the same binder, the pKd [7] was “below the threshold”, the pKd [8] was 5.5 and the pKd [9] was 4.02. The pKd [10] was “below the threshold”, the pKd [11] was “below the threshold” and the pKd [12] was 4.25. The pKd [13] was 3.57, the pKd [14] was 3.81 and the pKd [15] was 3.68. For the same binder, the pKd [16] was 3.54, the pKd [17] was “below the threshold” and the pKd [18] was “below the threshold”. The pKd [19] was “below the threshold”, the pKd [20] was “below the threshold” and the pKd [21] was “below the threshold”. For the same binder, the pKd [22] was “below the threshold”, the pKd [23] was 5.03 and the pKd [24] was 3.98. The pKd [25] was “below the threshold” and the pKd [26] was 5.52.

With PGKKPEDSRV [SLCO2B1, O94956] the pKd [1] was 3.48, the pKd [2] was “below the threshold” and the pKd [3] was 3.5. For the same binder, the pKd [4] was “below the threshold”, the pKd [5] was “below the threshold” and the pKd [6] was 3.66. For the same binder, the pKd [7] was “below the threshold”, the pKd [8] was 4.43 and the pKd [9] was “below the threshold”. The pKd [10] was “below the threshold”, the pKd [11] was “below the threshold” and the pKd [12] was 3.64. The pKd [13] was “below the threshold”, the pKd [14] was “below the threshold” and the pKd [15] was “below the threshold”. The pKd [16] was 3.52, the pKd [17] was “below the threshold” and the pKd [18] was “below the threshold”. For the same binder, the pKd [19] was “below the threshold”, the pKd [20] was “below the threshold” and the pKd [21] was “below the threshold”. The pKd [22] was “below the threshold”, the pKd [23] was 3.78 and the pKd [24] was “below the threshold”. For the same binder, the pKd [25] was “below the threshold” and the pKd [26] was 4.27.

With MLPANYVEAI [NEB, P20929] the pKd [1] was “below the threshold”, the pKd [2] was “below the threshold” and the pKd [3] was “below the threshold”. The pKd [4] was 3.69, the pKd [5] was “below the threshold” and the pKd [6] was “below the threshold”. The pKd [7] was “below the threshold”, the pKd [8] was “below the threshold” and the pKd [9] was 3.52. The pKd [10] was “below the threshold”, the pKd [11] was “below the threshold” and the pKd [12] was “below the threshold”. For the same binder, the pKd [13] was “below the threshold”, the pKd [14] was “below the threshold” and the pKd [15] was “below the threshold”. The pKd [16] was “below the threshold”, the pKd [17] was “below the threshold” and the pKd [18] was “below the threshold”. For the same binder, the pKd [19] was “below the threshold”, the pKd [20] was 3.65 and the pKd [21] was “below the threshold”. The pKd [22] was 3.96, the pKd [23] was “below the threshold” and the pKd [24] was “below the threshold”. For the same binder, the pKd [25] was “below the threshold” and the pKd [26] was “below the threshold”.

For EPAKETTTNV [SLC2A3, P11169], the pKd [1] was 4, the pKd [2] was “below the threshold” and the pKd [3] was “below the threshold”. For the same binder, the pKd [4] was “below the threshold”, the pKd [5] was “below the threshold” and the pKd [6] was 3.79. For the same binder, the pKd [7] was 4.22, the pKd [8] was 4.95 and the pKd [9] was “below the threshold”. For the same binder, the pKd [10] was “below the threshold”, the pKd [11] was “below the threshold” and the pKd [12] was 3.51. The pKd [13] was 3.52, the pKd [14] was “below the threshold” and the pKd [15] was “below the threshold”. The pKd [16] was 3.64, the pKd [17] was “below the threshold” and the pKd [18] was “below the threshold”. The pKd [19] was “below the threshold”, the pKd [20] was 3.62 and the pKd [21] was “below the threshold”. For the same binder, the pKd [22] was “below the threshold”, the pKd [23] was 4.42 and the pKd [24] was “below the threshold”. The pKd [25] was “below the threshold” and the pKd [26] was 5.06.

ADEMICITTL [CACNA1D, Q01668] was tested, and the pKd [1] was 5.77, the pKd [2] was “below the threshold” and the pKd [3] was “below the threshold”. The pKd [4] was 3.95, the pKd [5] was “below the threshold” and the pKd [6] was 4.22. It also gave a pKd [7] of 3.93, a pKd [8] of 5.51 and a pKd [9] of 3.58. For the same binder, the pKd [10] was “below the threshold”, the pKd [11] was “below the threshold” and the pKd [12] was “below the threshold”. For the same binder, the pKd [13] was 3.97, the pKd [14] was 4.38 and the pKd [15] was “below the threshold”. For the same binder, the pKd [16] was 3.66, the pKd [17] was “below the threshold” and the pKd [18] was “below the threshold”. For the same binder, the pKd [19] was “below the threshold”, the pKd [20] was 4.62 and the pKd [21] was “below the threshold”. The pKd [22] was 4.19, the pKd [23] was 4.06 and the pKd [24] was “below the threshold”. The pKd [25] was “below the threshold” and the pKd [26] was 5.76.
